Molecular target: AchR (Homo sapiens, UniProt P02708)
Test: ELISA of screened peptide phages on AchR versus streptavidin (OD450)
Format: binding
Conditions: ELISA of selected 14-mer (L3) peptide phages on AchR, absorbance at 450 nm; Spep-2 positive control
In short: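 Phage supernatants from 4th–5th round plaques, in 2% BSA, applied 1 h at 30 °C to wells coated with 5 μg/ml AchR or streptavidin. Bound phage detected with HRP anti-M13 and TMB at OD450; value given as AchR/streptavidin signal ratio.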

Sequence of AchR (P02708 21-457): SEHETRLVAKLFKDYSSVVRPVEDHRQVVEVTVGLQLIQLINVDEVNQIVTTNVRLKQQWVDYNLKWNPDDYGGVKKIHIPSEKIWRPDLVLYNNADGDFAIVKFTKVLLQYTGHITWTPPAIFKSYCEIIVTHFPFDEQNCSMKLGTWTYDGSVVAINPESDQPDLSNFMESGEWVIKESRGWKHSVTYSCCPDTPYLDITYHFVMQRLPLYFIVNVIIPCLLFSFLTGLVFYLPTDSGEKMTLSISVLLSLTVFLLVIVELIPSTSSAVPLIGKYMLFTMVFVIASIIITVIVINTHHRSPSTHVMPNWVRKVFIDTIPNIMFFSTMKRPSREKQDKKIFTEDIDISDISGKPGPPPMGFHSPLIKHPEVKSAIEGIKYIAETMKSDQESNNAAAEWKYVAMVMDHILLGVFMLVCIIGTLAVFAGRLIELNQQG

Substance	OD
L3-92 (NLERTKKHGLKGYM; AchR binding peptide) [Peptide L3-92]	0.657
L3-93 (EGGRIKRPNYRGDG; AchR binding peptide) [Peptide L3-93]	0.7
L3-94 (PVLKLRKGRVRAQP; AchR binding peptide) [Peptide L3-94]	0.61
L3-95 (SISRLRKAHQKFIP; AchR binding peptide) [Peptide L3-95]	0.657
L3-96 (EWHKHRREMVRWGP; AchR binding peptide) [Peptide L3-96]	0.567
L3-97 (WSAKGRRMGCKSTM; AchR binding peptide) [Peptide L3-97]	0.684
L3-98 (PNGKVRKRIRRRYF; AchR binding peptide) [Peptide L3-98]	0.685
L3-99 (PCWKFRRAQMKWGI; AchR binding peptide) [Peptide L3-99]	0.692
L3-100 (LEERPKKHCAKNHC; AchR binding peptide) [Peptide L3-100]	0.572
L3-101 (QPWRQKKFWCRCWG; AchR binding peptide) [Peptide L3-101]	0.758
L3-102 (IMVKIRRCPARPLC; AchR binding peptide) [Peptide L3-102]	0.581
L3-103 (NDWKLRKDFWRNHF; AchR binding peptide) [Peptide L3-103]	0.676
L3-104 (ASVRDRKMGYKSDG; AchR binding peptide) [Peptide L3-104]	0.57
L3-105 (YYEKIRRGEIKIAE; AchR binding peptide) [Peptide L3-105]	0.601
L3-106 (DLVRKRKTMLRQLV; AchR binding peptide) [Peptide L3-106]	0.642
L3-107 (DLSKVRRGHGKNDI; AchR binding peptide) [Peptide L3-107]	0.658
L3-108 (ESYRLRRGTDKEQW; AchR binding peptide) [Peptide L3-108]	0.621
L3-109 (YITKFRKFLMKDQF; AchR binding peptide) [Peptide L3-109]	0.613
L3-110 (AWAKYKKVQPKHHT; AchR binding peptide) [Peptide L3-110]	0.538
L3-111 (TWLRGRRWPDKQPQ; AchR binding peptide) [Peptide L3-111]	0.976
L3-112 (ALPRVRKDSHREEI; AchR binding peptide) [Peptide L3-112]	0.731

Substance	OD
L3-113 (CLFKYRKSCVRLCG; AchR binding peptide) [Peptide L3-113]	0.766
L3-114 (LQNRMRKIYWKTFD; AchR binding peptide) [Peptide L3-114]	0.646
L3-115 (NDPRLRKHNHRCCT; AchR binding peptide) [Peptide L3-115]	0.685
L3-116 (YGSKQRRFEEKICG; AchR binding peptide) [Peptide L3-116]	0.644
L3-117 (CGHKNKKWHNRMDP; AchR binding peptide) [Peptide L3-117]	0.696
L3-118 (YGIRDRRPMTKHTQ; AchR binding peptide) [Peptide L3-118]	0.69
L3-119 (TPLKSRKYWNKHAY; AchR binding peptide) [Peptide L3-119]	0.693
L3-120 (FLYKAKKALMRDSL; AchR binding peptide) [Peptide L3-120]	0.887
L3-121 (CDDKPKKTVVKLTW; AchR binding peptide) [Peptide L3-121]	0.655
L3-122 (MHPRPRKMSHKMSC; AchR binding peptide) [Peptide L3-122]	0.691
L3-123 (PGERLKKEDHRASG; AchR binding peptide) [Peptide L3-123]	0.654
L3-124 (GAQRARKPVLRAVG; AchR binding peptide) [Peptide L3-124]	0.515
L3-125 (MQEKCRRCVFKGNI; AchR binding peptide) [Peptide L3-125]	0.629
L3-126 (YVDRWRRMQYKLSI; AchR binding peptide) [Peptide L3-126]	0.542
L3-127 (WVDRSRKFEDRNCL; AchR binding peptide) [Peptide L3-127]	0.608
L3-128 (IVNRAKRSQIRFDV; AchR binding peptide) [Peptide L3-128]	0.523
L3-129 (IHPRYKRHQARSCC; AchR binding peptide) [Peptide L3-129]	0.606
L3-130 (EHSKHRKDLFRMVG; AchR binding peptide) [Peptide L3-130]	0.531
L3-131 (YTPKFRRIFWRIID; AchR binding peptide) [Peptide L3-131]	0.655
L3-132 (TITRVKRASHKTPS; AchR binding peptide) [Peptide L3-132]	0.619
L3-133 (VDSREKKWRQKCQC; AchR binding peptide) [Peptide L3-133]	0.566

Substance	OD
L3-134 (YWFRIKRAHAKGCP; AchR binding peptide) [Peptide L3-134]	0.653
L3-135 (NDHRMRRSVDRGET; AchR binding peptide) [Peptide L3-135]	0.69
L3-136 (PFDRARRDLHRIMM; AchR binding peptide) [Peptide L3-136]	0.512
L3-137 (QVVRLRRGKNRGTV; AchR binding peptide) [Peptide L3-137]	0.565
L3-138 (TNQRPRRETAKTIE; AchR binding peptide) [Peptide L3-138]	0.576
L3-139 (FHHRHKRIATKHPA; AchR binding peptide) [Peptide L3-139]	0.49
L3-140 (EHCKWKKMFDKEGE; AchR binding peptide) [Peptide L3-140]	0.607
L3-141 (FFYRLRRCLTRWWV; AchR binding peptide) [Peptide L3-141]	0.504
L3-142 (LQCKYRRGSDKTVV; AchR binding peptide) [Peptide L3-142]	0.502
L3-143 (QTMKFKRCCNKEMV; AchR binding peptide) [Peptide L3-143]	0.559
L3-144 (CSYKLRRCDMRLWG; AchR binding peptide) [Peptide L3-144]	0.578
L3-145 (MHIKMKREQVKDEE; AchR binding peptide) [Peptide L3-145]	0.495
L3-146 (AVWRNRKDNVKASE; AchR binding peptide) [Peptide L3-146]	0.512
L3-147 (ADHRAKKTLSKFWT; AchR binding peptide) [Peptide L3-147]	0.562
L3-148 (MMARCRRIMCRSFN; AchR binding peptide) [Peptide L3-148]	0.451
L3-149 (PFGKFKRLENKDEC; AchR binding peptide) [Peptide L3-149]	0.571
L3-150 (YLSRTKRWLARYVE; AchR binding peptide) [Peptide L3-150]	0.518
L3-151 (HTLKPKRLYPRPSE; AchR binding peptide) [Peptide L3-151]	0.624
L3-152 (VVIKCRKWTHKMDH; AchR binding peptide) [Peptide L3-152]	0.818
L3-153 (FHTKLRKPIPKIDM; AchR binding peptide) [Peptide L3-153]	0.768
L3-154 (ENIKSRKYFVKLTW; AchR binding peptide) [Peptide L3-154]	0.766

Substance	OD
L3-155 (AWTRFRRFQCKGMS; AchR binding peptide) [Peptide L3-155]	0.794
L3-156 (IVPRDRKQALRWTN; AchR binding peptide) [Peptide L3-156]	0.799
L3-157 (CMLRWKRWHMRFNP; AchR binding peptide) [Peptide L3-157]	0.731
L3-158 (FDMRDRRPNARVMP; AchR binding peptide) [Peptide L3-158]	0.738
L3-159 (QIAKLKRDQMKEAW; AchR binding peptide) [Peptide L3-159]	0.786
L3-160 (LTSRCKKTFQKNSE; AchR binding peptide) [Peptide L3-160]	0.792
L3-161 (MAAKWKKDGMKSHY; AchR binding peptide) [Peptide L3-161]	0.733
L3-162 (ANWRTRRDLAKEHV; AchR binding peptide) [Peptide L3-162]	0.781
L3-163 (PFTKMRKQFQRMSA; AchR binding peptide) [Peptide L3-163]	0.78
L3-164 (QINRVKKSDAKFCT; AchR binding peptide) [Peptide L3-164]	0.746
L3-165 (YLVKLRRFWAKIDM; AchR binding peptide) [Peptide L3-165]	0.771
L3-166 (EYVKAKRTPWKYVV; AchR binding peptide) [Peptide L3-166]	0.629
L3-167 (AMCREKRFPYRAIY; AchR binding peptide) [Peptide L3-167]	0.634
L3-168 (MGLRARKYEDKTLH; AchR binding peptide) [Peptide L3-168]	0.775
L3-169 (FHMKSKKDGDKFVM; AchR binding peptide) [Peptide L3-169]	0.783
L3-170 (CIFKFKKNMFKGYS; AchR binding peptide) [Peptide L3-170]	0.768
L3-171 (LDTKNRRGASKWDY; AchR binding peptide) [Peptide L3-171]	0.629
L3-172 (VTGKGRRVTFRCMN; AchR binding peptide) [Peptide L3-172]	0.634
L3-173 (QLGKQKREATREYV; AchR binding peptide) [Peptide L3-173]	0.775
L3-174 (SSGKWKRPHAKYIV; AchR binding peptide) [Peptide L3-174]	0.783

— patent US20260000597A1 (priority 2018, published 2026)
